Results from patent US5928931A, “Isolation, purification and cloning of retinol dehydratase” (Cornell Research Foundation, Inc., priority 1997, dated 1999).

B1: Recombinant retinol dehydratase: 352 amino acid, 41.5 kDa enzyme of Sf-21 cells, expressed in bacteria with HisTag, SEQ. ID. No. 2 (protein)
chain: MEKQQDLPFPYEFRELNPEDKLVKANLGAFPTTYVKLGPKGYMVYRPYLKDAANIYNMPLRPTDVFVASYQRSGTTMTQELVWLIENDLNFEAAKTYMSLRYIYLDGFMIYDPEKQEEYNDILPNPENLDMERYLGLLEYFSRPGSSLLAAVPPTEKRFVKTHLPLSLMPPNMLDTVKMVYLARDPRDVAVSSFHHARLLYLLNKQSNFKDFWEMFHRGLYTLTPYFEHVKEAWAKRHDPNMLFLFYEDYLKDLPGCIARIADFLGKKLSEEQIQRLCEHLNFEKFKNNGAVNMEDYREIGILADGEHFIRKGKAGCWRDYFDEEMTKQAEKWIKDNLKDTDLRYPNMEL
modifications: His tag
B2: EGF: epidermal growth factor, purchased (protein, UniProt P01133 23-1207, looked up)
Pro-epidermal growth factor: PQHWSCPEGTLAGNGNSTCVGPAPFLIFSHGNSIFRIDTEGTNYEQLVVDAGVSVIMDFHYNEKRIYWVDLERQLLQRVFLNGSRQERVCNIEKNVSGMAINWINEEVIWSNQQEGIITVTDMKGNNSHILLSALKYPANVAVDPVERFIFWSSEVAGSLYRADLDGVGVKALLETSEKITAVSLDVLDKRLFWIQYNREGSNSLICSCDYDGGSVHISKHPTQHNLFAMSLFGDRIFYSTWKMKTIWIANKHTGKDMVRINLHSSFVPLGELKVVHPLAQPKAEDDTWEPEQKLCKLRKGNCSSTVCGQDLQSHLCMCAEGYALSRDRKYCEDVNECAFWNHGCTLGCKNTPGSYYCTCPVGFVLLPDGKRCHQLVSCPRNVSECSHDCVLTSEGPLCFCPEGSVLERDGKTCSGCSSPDNGGCSQLCVPLSPVSWECDCFPGYDLQLDEKSCAASGPQPFLLFANSQDIRHMHFDGTDYGTLLSQQMGMVYALDHDPVENKIYFAHTALKWIERANMDGSQRERLIEEGVDVPEGLAVDWIGRRFYWTDRGKSLIGRSDLNGKRSKIITKENISQPRGIAVHPMAKRLFWTDTGINPRIESSSLQGLGRLVIASSDLIWPSGITIDFLTDKLYWCDAKQSVIEMANLDGSKRRRLTQNDVGHPFAVAVFEDYVWFSDWAMPSVMRVNKRTGKDRVRLQGSMLKPSSLVVVHPLAKPGADPCLYQNGGCEHICKKRLGTAWCSCREGFMKASDGKTCLALDGHQLLAGGEVDLKNQVTPLDILSKTRVSEDNITESQHMLVAEIMVSDQDDCAPVGCSMYARCISEGEDATCQCLKGFAGDGKLCSDIDECEMGVPVCPPASSKCINTEGGYVCRCSEGYQGDGIHCLDIDECQLGEHSCGENASCTNTEGGYTCMCAGRLSEPGLICPDSTPPPHLREDDHHYSVRNSDSECPLSHDGYCLHDGVCMYIEALDKYACNCVVGYIGERCQYRDLKWWELRHAGHGQQQKVIVVAVCVVVLVMLLLLSLWGAHYYRTQKLLSKNPKNPYEESSRDVRSRRPADTEDGMSSCPQPWFVVIKEHQDLKNGGQPVAGEDGQAADGSMQPTSWRQEPQLCGMGTEQGCWIPVSSDKGSCPQVMERSFHMPSYGTQTLEGGVEKPHSLLSANPLWQQRALDPPHQMELTQ
modifications: Pro-epidermal growth factor
notes: epidermal growth factor, purchased

What was measured:
retinol dehydratase [1] = target: T1, retinol dehydratase (Spodoptera frugiperda, UniProt Q26490); test: Retinol dehydratase assay ([3H]-retinol to [3H]-AR, HPLC radiomatic detection); kinetic studies; type: biochemical; details: bacterially expressed recombinant enzyme
T1 sequence (Q26490 1-351): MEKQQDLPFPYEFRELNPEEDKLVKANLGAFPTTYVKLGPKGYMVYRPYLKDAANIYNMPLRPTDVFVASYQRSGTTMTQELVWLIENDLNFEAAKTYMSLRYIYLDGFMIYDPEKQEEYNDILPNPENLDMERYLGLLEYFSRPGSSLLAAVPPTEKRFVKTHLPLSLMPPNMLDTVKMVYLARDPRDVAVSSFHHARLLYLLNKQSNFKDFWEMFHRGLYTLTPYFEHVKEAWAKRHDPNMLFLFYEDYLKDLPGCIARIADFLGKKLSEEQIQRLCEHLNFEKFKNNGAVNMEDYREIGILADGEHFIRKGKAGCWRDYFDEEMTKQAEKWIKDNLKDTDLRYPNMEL
Procedure: 20-50 μl aliquots of supernatant/column fractions were incubated with 1 μCi of [^3 H]-retinol and 20 μl of high speed supernatant from sonicated Sf-9 cells in 200 μl assay buffer (20 mM Tris.Cl pH 7.5, 150 mM NaCl, I mM MgCI2) for 15-60 minutes at 24° C. […] Samples were delipidated and [^3 H]-AR production quantified by a liquid scintillation radiomatic detector in series with HPLC gradient elution (20 mM Tris pH 7.4/methanol/chloroform) from a C-18 Reverse Phase 201TP54 column (Vydac, Separations Group, Hesperia, Calif.) as described by McClean et al., Clin. Chem., 28:693-96 (1982) and Derguini et al., Angew. Che. Int. Ed. Engl., 33:1839-41 (1994), which are hereby incorporated by reference.
Kinetic studies were performed with native retinol dehydratase (0.1 μg/assay) and ^3 H-retinol in the presence of constant substrate carrier protein concentrations, either delipidated BSA or recombinant cellular retinol binding protein ("CRBP"). The initial rate of AR synthesis at different substrate concentrations was determined by radiomatic detection of ^3 H-AR after HPLC separation.
Carrier protein for retinol (delipidated bovine serum albumin or recombinant human CRBP) was added to reduce nonspecific binding and micelle formation.

retinol dehydratase [2] = target: T1, retinol dehydratase; test: Fluorimetric titration of recombinant retinol dehydratase with retinol (direct binding, no cofactor); details: recombinant enzyme; for number of (high affinity) binding sites per molecule: retinol titration
Procedure: Binding was monitored by following the fluorescence enhancement of retinol (excitation--330 nm; emission--480 nm, open circles). The fluorescence contribution of free retinol was determined by titration with retinol in the absence of protein (open squares), analyzed by linear regression analysis (dashed line) and subtracted from the titration data to give the corrected titration binding curve (closed circles). The data were fitted (solid line) using an equation derived from simple binding theory.
Retinol is an efficient fluorophore and its interactions with proteins are often accompanied by a marked increase in its fluorescence. This phenomenon reflects movement of retinol from the aqueous solution to a less polar and more restrictive environment within a protein binding site, and has been extensively used to monitor the binding of retinol to binding proteins, as described by Cogan et al., Eur. J. Biochem., 65:71-75 (1976); Ong et al., J. Biol Chem., 253:828-32 (1978); and Noy et al., Biochemistry, 30:6380-86 (1991), which are hereby incorporated by reference.
Recombinant retinol dehydratase (lμM) was titrated with retinol from a concentrated solution in ethanol (final ethanol concentration <2.0%). Binding was monitored by following the fluorescence enhancement of retinol (excitation--330 nm; emission--480 nm, open circles). The fluorescence contribution of free retinol was determined by titration with retinol in the absence of protein (FIG. 5B, open squares), analysed by linear regression analysis (FIG. 5B, dashed line) and subtracted from the titration data to give the corrected titration binding curve (FIG. 5B, closed circles). The data were fitted (FIG. 5B, solid line) using an equation derived from simple binding theory as described in Norris et al., Biochim Bioshys Acta, 1209:10-8 (1994), which is hereby incorporated by reference, to yield the number of binding sites (8%) and the equilibrium dissociation constant (Kd =9 nM).
The derived Kd should thus be considered an upper limit for the actual value. Nevertheless, it agreed with the Km, confirming retinol dehydratase has a high affinity binding site for free retinol.

NIH 3T3 cells = test: Activation of resting serum-starved NIH 3T3 cells ([3H]thymidine incorporation); type: cell-based
Procedure: FIGS. 6A and 6B show the activation of resting NIH 3T3 cells. In FIG. 6(a), one to four day serum-starved cells activated by serum, retinol, 14-HRR, and the peptide growth factors epidermal growth factor ("EGF") and platelet derived growth factor ("PDGF") are shown. […] NIH 3T3 cells were grown to confluence in Dulbecco's minimal essential medium ("DMEM") containing 10% fetal calf serum in 96-well microliter plates. All media were supplemented with 2 mM glutamine and 100 U/ml of penicillin/streptomycin. Cells were washed once with phosphate-buffered saline solution and incubated for one to four days in 200 μl/well of DMEM media/0.1% fetal calf serum ("starvation media"). On the indicated day, starvation media was replaced with 200 μl/well of insulin, transferrin, linoleic acid, bovine serum albumin ("ITLB") media, with or without fetal calf serum, retinoids, or peptide growth factors at the indicated concentrations. ITLB media is RPMI media (Gibco BRL, Grand Island, N.Y.) containing […] bovine serum albumin (1.2 mg/ml), linoleic acid (10^-6 M), bovine insulin (5 μg/ml), and transferrin (5 μg/ml). [^3 H]thymidine (1.2 μCi per well) was added at the beginning of the experiment, and the thymidine incorporation was determined after 24 h. […]
Cells starved for 4 days in DMEM/0.1% fetal calf serum were activated with 5% fetal calf serum, 2 μM retinol, or 2 μM 14-HRR, and the cumulative thymidine incorporation was determined at the indicated time points. Δcpm corresponds to the increase in [^3 H]thymidine incorporation in the two hour period before the time point shown. […]
Cells starved for 4 days in DMEM/0.1% fetal calf serum were activated with 5% fetal calf serum, 2 μM retinol, or 2 μM 14-HRR. […] The cumulative [^3 H]thymidine incorporation was determined after 24 hours. […]
Confluent NIH 3T3 cells were starved for 1 to 4 days in medium containing 0.1% serum. […] Activation was quantitated by measuring the [^3 H] thymidine incorporated into newly synthesized DNA during the subsequent 24 hours (FIG. 6A). […]

Row | Molecule | Vmax as compared to the native enzyme purified from Sf-21 (retinol dehydratase [1]) [%] | range of binding sites (retinol dehydratase [2]; n=3) | number of (high affinity) binding sites per molecule (retinol dehydratase [2]) [%] | number of (high affinity) binding sites per molecule (retinol dehydratase [2]; listed as recombinant enzyme) [%] | binding sites (retinol dehydratase [2]; titration curves, n=3) | activation of growth arrested cells (thymidine incorporation over 24 hours) (NIH 3T3 cells; cells deprived of serum for 3 or 4 days) | entry of treated cells into the S phase (NIH 3T3 cells; data not shown) | activation of resting cells (NIH 3T3 cells; ≤500 ng/ml)
1 | B1 | 10 | 0.06-0.08 | 8 | 7 | 0.07 |  |  | 
2 | B2 |  |  |  |  |  | had no effect | did not enter the S phase | unable to activate
